Reference: patent publication US20260226006A1, “INDOLE COMPOUND, PREPARATION METHOD THEREFOR AND USE THEREOF” (SUZHOU MERNA THERAPEUTICS CO. LTD, priority 2023, published 2026)

What was measured:
[1] = system: KRT1, KRT10, Loricrin, and Involucrin in HaCat keratinocytes; experiment: Expression of keratinocyte differentiation markers in HaCat cells, RT-PCR and Western blot (Example 18); type: cell-based, human; conditions: HBEGF protein alone, 24 hours
Description: 1*10^8 HaCat cells were seeded in culture dishes, into which a recombinant HBEGF protein (Thermo Fisher Scientific, Cat. #100-47-1 mg) was added. The cells were placed in an incubator containing 5% carbon dioxide for culture at 37° C. for 24 hours, into which an HBEGF antibody (Invitrogen, Cat. #406316) was added, or METTL3 siRNA (sh-METTL3, GeneChem) and NAP1L2 siRNA (sh-NAP1L2, GeneChem) were transfected. The cells were placed in an incubator containing 5% carbon dioxide for culture at 37° C. for 24 hours, washed with PBS, and then collected by high-speed centrifugation. An RLT lysis buffer was added to the above collected cells, the mixture was shaken at 4° C. for half an hour and centrifuged to collect the supernatant, and the protein expression amounts of keratinocyte differentiation markers KRT1, KRT10, Loricrin, and Involucrin were measured by Western blot.
Total RNA was extracted using a Trizol reagent (Sigma Aldrich). 1 μg of RNA was reverse-transcribed into cDNA using a cDNA reverse transcription kit (Transgene Biotech, Cat. #AT311-03). 1.25 μL of a primer (with a primer sequence shown in Table 2), 10 μL of an iTag Universal SYBR Green supermix (Bio-Rad, Cat. #172-5125), and an appropriate amount of DEPC ultrapure water were added to formulate 20 μL of a reaction solution to perform an RT-PCR reaction. […]

HaCaT keratinocytes = experiment: Inhibition of HBEGF-induced differentiation of HaCaT keratinocytes, marker mRNA by RT-PCR (Example 21); type: cell-based, human; conditions: 2.5 ng/mL human recombinant HBEGF protein alone, 24 hours
Description: Human HaCaT keratinocytes were cultured in a DMEM culture medium containing 10% fetal bovine serum, 100 U/mL penicillin, and 100 µg/mL streptomycin. The cells were seeded into a 96-well plate at a density of […] and placed in an incubator containing 5% carbon dioxide for culture at 37° C. for 24 hours. An equal volume of DMSO was added into control well 1, a 2.5 ng/mL human recombinant HBEGF protein (Abcam, ab205523) was added into control well 2, and a 2.5 ng/mL human recombinant HBEGF protein and corresponding concentrations of test compounds were added into sample wells. The cells were continuously cultured for 24 hours, washed with PBS, and then collected by high-speed centrifugation. Total RNA was extracted using a Trizol reagent (Sigma Aldrich). 1 μg of RNA was reverse-transcribed into cDNA using a cDNA reverse transcription kit (Transgene Biotech, AT311-03). 1.25 μL of a primer (with a primer sequence shown in Table 2), 10 μL of an iTag Universal SYBR Green supermix (Bio-Rad, 172-S125), and an appropriate amount of DEPC ultrapure water were added to formulate 20 μL of a reaction solution to perform an RT-PCR reaction. Upon completion of the reaction, the reaction solution was subjected to agarose gel electrophoresis to determine the mRNA expression amounts of keratinocyte differentiation markers KRT1, KRT10, Loricrin, and Involucrin.

B1: recombinant HBEGF protein: recombinant HBEGF protein used to induce keratinocyte differentiation (protein, UniProt Q99075 63-148, looked up)
Heparin-binding EGF-like …: DLQEADLDLLRVTLSSKPQALATPNKEEHGKRKKKGKGLGKKRDPCLRKYKDFCIHGECKYVKELRAPSCICHPGYHGERCHGLSL
For B1, the “mRNA and protein expression amounts of KRT1, KRT10, Loricrin, and Involucrin” value [1] was “significantly increased” and the “mRNA expression amounts of HaCaT differentiation markers KRT1, KRT10, Loricrin, and Involucrin” value (HaCaT keratinocytes) was “significantly increased”.
